Here are results for two molecules from patent US20090068164 (published 2009).

Data set [1] deals with LacA-Zif268 + PE1A-LacB (split beta-lactamase SEER pair) (artificial, UniProt O73693; SEQ:189-286,SEQ:1-88). Description: split beta-lactamase reassembly on cognate target.
In data set [2] the target is NGFP-Zif268 + CGFP-MBD2 (human MBD2 residues 147-215; mCpG-SEER pair) (artificial, UniProt P08046;Q9UBB5 P08046:333-419,Q9UBB5:147-215). Description: split GFP reassembly; used as reference (relative fluorescence 1) for specificity set; Zn buffer, 4 C.

B1: Zif-0-PE1A (structured_DNA)
DNA: GGCGTTATTTATCGCCCACGCGGGTTTTCCCGCGTGGGCGATAAATAACGCC
For B1, the binding result in data set [1] is reported as “binds”.

B2: mCpG-Zif268 (dsDNA)
DNA 1: GCGTACGTAGGACGATACGCCCACGCCACCG
DNA 2: CGGTGGCGTGGGCGTATCGTCCTACGTACGC
modifications: 5mC at the CpG on both strands (GTAmCGTA)
As for B2, the binding result in data set [2] was “binds”.
